Reference: US20170137818, “APTAMER INHIBITING BIOLOGICAL ACTIVITY OF AUTOTAXIN BY BINDING WITH AUTOTAXIN, AND USE THEREOF” (RIBOMIC INC., published 2017)

Legend:
[1] = molecular target: T1, autotaxin (ENPP2/NPP2) (Homo sapiens, UniProt Q13822 Q13822:36-863); test: inhibition; NPP2 assay, 1 mM pNP-TMP, 0.3 nM autotaxin, 37 C
[2] = molecular target: T1, autotaxin (ENPP2/NPP2); test: inhibition; NPP2 assay, 37 C; no SPR binding
[3] = molecular target: T1, autotaxin (ENPP2/NPP2); test: SPR; not more than 10% of SEQ 12 signal; aptamer 0.3 uM; solution A
[4] = molecular target: T2, autotaxin (endogenous, human pooled serum) (Homo sapiens, UniProt Q13822 Q13822:36-863); test: inhibition; LPA production in serum, 0.025 uM
[5] = molecular target: T1, autotaxin (ENPP2/NPP2); test: inhibition; LysoPLD assay, 2 mM 14:0 LPC, 2.1 nM autotaxin, 37 C
[6] = molecular target: T1, autotaxin (ENPP2/NPP2); test: inhibition; NPP2 assay, pNP-TMP, 37 C
[7] = molecular target: T2, autotaxin (endogenous, human pooled …); test: inhibition; LPA production in serum, 1.0 uM
[8] = molecular target: FGF2 (UniProt P09038 P09038:135-288); test: SPR; specificity control; FGF2 immobilized, aptamer 0.3 uM; solution A; conditions: tags: PeproTech
Chain of FGF2 (P09038 135-288, one chain of several): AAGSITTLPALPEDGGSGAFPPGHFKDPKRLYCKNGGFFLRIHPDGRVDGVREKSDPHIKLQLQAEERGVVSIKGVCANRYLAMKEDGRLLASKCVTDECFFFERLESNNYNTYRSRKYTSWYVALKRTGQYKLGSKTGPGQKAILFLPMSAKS

B1: SEQ 8 aptamer (ssDNA)
DNA: GTGGTCTAGCTGTACTCCGAAAGCCGGAACCGTGCCAATGGTCGCTACTTCAGCTCCCCACAGTCAACGAGCTA
Binder B1 has an IC50 [1] of 10 nM.

B2: SEQ 15 aptamer (ssDNA)
DNA: CCTGGACGGAACCAATACTTGGTCTCCAGG
With B2 the IC50 [2] was 990 nM and the binding result [3] was “no binding”.

B3: 12(144) (ssDNA)
DNA: CCTGGACGGAACCAGAATACTTTTGGTCTCCAGG
modifications: 2'-OMe C7,G9,A14,G15,A19,C20,A32,G33,G34; P-methyl C1,G5,G8,C12,A16,T21,T23,C28,C30,C31,G34; 5' 40 kDa PEG via ssH linker, 3' idT
For B3, the activity [4] was 87 % inhibition and the IC50 [5] was 1.6 nM.

B4: 12(149) (ssDNA)
DNA: B3 DNA
modifications: 2'-OMe C7,G9,A14,G15,A19,C20,A32,G33,G34; P-methyl G5,G8,C12,A16,T21,T23,C28,C30,C31,G34; 5' idT, 3' idT
B4 gave an IC50 [5] of 6.1 nM.

B5: 12(148) (ssDNA)
DNA: B3 DNA
modifications: 2'-OMe C7,G9,A14,G15,A19,C20,A32,G33,G34; 3' idT
With B5 the IC50 [6] was 6.8 nM.

B6: 12(49) (ssDNA)
DNA: B3 DNA
modifications: 2'-OMe C1,G5,C7,G9,C12,C13,A14,G15,A19,C20,A32,G33,G34; 5' 40 kDa PEG via ssH linker, 3' idT
B6 gave an activity [7] of 58 % inhibition.

B7: 12(48) (ssDNA)
DNA: B3 DNA
modifications: 2'-OMe C7,G9,A14,G15,A19,C20,A32,G33,G34; 5' 40 kDa PEG (GL2-400GS2) via ssH linker, 3' idT
B7 was tested, and the binding result [8] was “no binding” and the activity [7] was 92 % inhibition.
